Measured values reported in US20240016949A1 (SHANGHAI FUDAN ZHANGJIANG BIO PHARMACEUTICAL, published 2024).

T1: FcγRIIa (CD32a) (UniProt P12318 34-317, limits assumed)
T1 sequence (looked up): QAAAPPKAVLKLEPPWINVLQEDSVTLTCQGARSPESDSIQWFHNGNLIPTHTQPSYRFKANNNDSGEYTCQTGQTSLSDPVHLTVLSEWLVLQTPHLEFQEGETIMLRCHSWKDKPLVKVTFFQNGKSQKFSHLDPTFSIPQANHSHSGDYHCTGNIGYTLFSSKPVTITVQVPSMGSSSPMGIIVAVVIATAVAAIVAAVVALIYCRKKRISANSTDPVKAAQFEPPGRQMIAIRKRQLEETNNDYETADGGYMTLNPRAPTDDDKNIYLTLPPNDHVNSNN


Biological target: T1, FcγRIIa (CD32a)
Test: cell-based or functional assay

| Binder | IC50 value (nM), killing activity on HSC Cell [nM] | IC50 value (nM), killing activity on K562 Cell [nM] |
| --- | --- | --- |
| antibody-drug conjugate FDA028-LE14 (antibody, human IgG1, kappa, LE14 linker-drug as thioether on cysteines of reduced interchain disulfides; DAR 7.63 for the whole antibody) light: not shown heavy: QVQLQQWGAGLLKPSETLSLTCAVYGGSFSGYYWSWIRQPPGKGLEWIGEINHSGSTNYNPSLKSRVTISVETSKNQFSLKLSSVTAADTAVYYCARDKWTWYFDLWGRGTLVTVSSASTKGPSVFPLAPSSKSTSGGTAALGCLVKDYFPEPVTVSWNSGALTSGVHTFPAVLQSSGLYSLSSVVTVPSSSLGTQTYICNVNHKPSNTKVDKKVEPKSCDKTHTCPPCPAPPVAGGPSVFLFPPKPKDTLMISRTPEVTCVVVDVSHEDPEVKFNWYVDGVEVHNAKTKPREEQYNSTYRVVSVLTVLHQDWLNGKEYKCKVSNKALPAPIEKTISKAKGQPREPQVYTLPPSREEMTKNQVSLTCLVKGFYPSDIAVEWESNGQPENNYKTTPPVLDSDGSFFLYSKLTVDKSRWQQGNVFSCSVMHEALHNHYTQKSLSLSPGK | 334 | 270 |
| antibody-drug conjugate FDA029-LE14 (antibody, human IgG1, kappa, LE14 linker-drug as thioether on cysteines of reduced interchain disulfides; DAR 7.82 for the whole antibody) light: not shown heavy: QVQLQQWGAGLLKPSETLSLTCAVYGGSFSGYYWSWIRQPPGKGLEWIGEINHSGSTNYNPSLKSRVTISVETSKNQFSLKLSSVTAADTAVYYCARDKWTWYFDLWGRGTLVTVSSASTKGPSVFPLAPSSKSTSGGTAALGCLVKDYFPEPVTVSWNSGALTSGVHTFPAVLQSSGLYSLSSVVTVPSSSLGTQTYICNVNHKPSNTKVDKKVEPKSCDKTHTCPPCPAPEFEGGPSVFLFPPKPKDTLMISRTPEVTCVVVDVSHEDPEVKFNWYVDGVEVHNAKTKPREEQYNSTYRVVSVLTVLHQDWLNGKEYKCKVSNKALPASIEKTISKAKGQPREPQVYTLPPSREEMTKNQVSLTCLVKGFYPSDIAVEWESNGQPENNYKTTPPVLDSDGSFFLYSKLTVDKSRWQQGNVFSCSVMHEALHNHYTQKSLSLSPGK | 363 | 323 |
